From patent US20260201008A1, “SECRETIN-DERIVED GLP1R SELECTIVE AGONISTS” (GUBRA A/S, priority 2023, published 2026)
Numbered stars: 1 amine (or outer) side, 2 acyl side, 3 side chain; on linkers, the order of the positions; unused ones are H or OH. Square brackets hold non-standard residues; d marks the D form. Side chains are listed from the residue outwards. Ends that are not written are not given here. * marks the point of attachment. C20 diacid = O=C(O)CCCCCCCCCCCCCCCCCCC(=O)*; γGlu = O=C(O)[C@H](CCC(=O)[*:2])N[*:1]; AEEA = NCCOCCOCC(=O)O; Aib = CC(C)(N)C(=O)O

B1: SEQ ID NO: 190 (peptide)
peptide: H[Aib]EGTFTSDWSFLLEGAALQRFIQWLV-NH2
modifications: N-terminus assumed
SMILES: CC[C@H](C)[C@H](NC(=O)[C@H](Cc1ccccc1)NC(=O)[C@H](CCCNC(=N)N)NC(=O)[C@H](CCC(N)=O)NC(=O)[C@H](CC(C)C)NC(=O)[C@H](C)NC(=O)[C@H](C)NC(=O)CNC(=O)[C@H](CCC(=O)O)NC(=O)[C@H](CC(C)C)NC(=O)[C@H](CC(C)C)NC(=O)[C@H](Cc1ccccc1)NC(=O)[C@H](CO)NC(=O)[C@H](Cc1c[nH]c2ccccc12)NC(=O)[C@H](CC(=O)O)NC(=O)[C@H](CO)NC(=O)[C@@H](NC(=O)[C@H](Cc1ccccc1)NC(=O)[C@@H](NC(=O)CNC(=O)[C@H](CCC(=O)O)NC(=O)C(C)(C)NC(=O)[C@@H](N)Cc1c[nH]cn1)[C@@H](C)O)[C@@H](C)O)C(=O)N[C@@H](CCC(N)=O)C(=O)N[C@@H](Cc1c[nH]c2ccccc12)C(=O)N[C@@H](CC(C)C)C(=O)N[C@H](C(N)=O)C(C)C
B2: SEQ ID NO: 195 (peptide)
peptide: H[Aib]EGTFTSDYSGLLEGAALQRFIQWLV-NH2
modifications: N-terminus assumed
SMILES: CC[C@H](C)[C@H](NC(=O)[C@H](Cc1ccccc1)NC(=O)[C@H](CCCNC(=N)N)NC(=O)[C@H](CCC(N)=O)NC(=O)[C@H](CC(C)C)NC(=O)[C@H](C)NC(=O)[C@H](C)NC(=O)CNC(=O)[C@H](CCC(=O)O)NC(=O)[C@H](CC(C)C)NC(=O)[C@H](CC(C)C)NC(=O)CNC(=O)[C@H](CO)NC(=O)[C@H](Cc1ccc(O)cc1)NC(=O)[C@H](CC(=O)O)NC(=O)[C@H](CO)NC(=O)[C@@H](NC(=O)[C@H](Cc1ccccc1)NC(=O)[C@@H](NC(=O)CNC(=O)[C@H](CCC(=O)O)NC(=O)C(C)(C)NC(=O)[C@@H](N)Cc1c[nH]cn1)[C@@H](C)O)[C@@H](C)O)C(=O)N[C@@H](CCC(N)=O)C(=O)N[C@@H](Cc1c[nH]c2ccccc12)C(=O)N[C@@H](CC(C)C)C(=O)N[C@H](C(N)=O)C(C)C
B3: SEQ ID NO: 197 (peptide)
peptide: H[Aib]EGTFTSDYS[Aib]LLEGAALQRFIQWLV-NH2
modifications: N-terminus assumed
SMILES: CC[C@H](C)[C@H](NC(=O)[C@H](Cc1ccccc1)NC(=O)[C@H](CCCNC(=N)N)NC(=O)[C@H](CCC(N)=O)NC(=O)[C@H](CC(C)C)NC(=O)[C@H](C)NC(=O)[C@H](C)NC(=O)CNC(=O)[C@H](CCC(=O)O)NC(=O)[C@H](CC(C)C)NC(=O)[C@H](CC(C)C)NC(=O)C(C)(C)NC(=O)[C@H](CO)NC(=O)[C@H](Cc1ccc(O)cc1)NC(=O)[C@H](CC(=O)O)NC(=O)[C@H](CO)NC(=O)[C@@H](NC(=O)[C@H](Cc1ccccc1)NC(=O)[C@@H](NC(=O)CNC(=O)[C@H](CCC(=O)O)NC(=O)C(C)(C)NC(=O)[C@@H](N)Cc1c[nH]cn1)[C@@H](C)O)[C@@H](C)O)C(=O)N[C@@H](CCC(N)=O)C(=O)N[C@@H](Cc1c[nH]c2ccccc12)C(=O)N[C@@H](CC(C)C)C(=O)N[C@H](C(N)=O)C(C)C
B4: SEQ ID NO: 193 (peptide)
peptide: H[Aib]EGTFTSDWSELLEGAALQRFIQWLV-NH2
modifications: N-terminus assumed
SMILES: CC[C@H](C)[C@H](NC(=O)[C@H](Cc1ccccc1)NC(=O)[C@H](CCCNC(=N)N)NC(=O)[C@H](CCC(N)=O)NC(=O)[C@H](CC(C)C)NC(=O)[C@H](C)NC(=O)[C@H](C)NC(=O)CNC(=O)[C@H](CCC(=O)O)NC(=O)[C@H](CC(C)C)NC(=O)[C@H](CC(C)C)NC(=O)[C@H](CCC(=O)O)NC(=O)[C@H](CO)NC(=O)[C@H](Cc1c[nH]c2ccccc12)NC(=O)[C@H](CC(=O)O)NC(=O)[C@H](CO)NC(=O)[C@@H](NC(=O)[C@H](Cc1ccccc1)NC(=O)[C@@H](NC(=O)CNC(=O)[C@H](CCC(=O)O)NC(=O)C(C)(C)NC(=O)[C@@H](N)Cc1c[nH]cn1)[C@@H](C)O)[C@@H](C)O)C(=O)N[C@@H](CCC(N)=O)C(=O)N[C@@H](Cc1c[nH]c2ccccc12)C(=O)N[C@@H](CC(C)C)C(=O)N[C@H](C(N)=O)C(C)C
B5: SEQ ID NO: 199 (peptide)
peptide: H[Aib]EGTFTSDYSELLEGAALQRFIQWLV-NH2
modifications: N-terminus assumed
SMILES: CC[C@H](C)[C@H](NC(=O)[C@H](Cc1ccccc1)NC(=O)[C@H](CCCNC(=N)N)NC(=O)[C@H](CCC(N)=O)NC(=O)[C@H](CC(C)C)NC(=O)[C@H](C)NC(=O)[C@H](C)NC(=O)CNC(=O)[C@H](CCC(=O)O)NC(=O)[C@H](CC(C)C)NC(=O)[C@H](CC(C)C)NC(=O)[C@H](CCC(=O)O)NC(=O)[C@H](CO)NC(=O)[C@H](Cc1ccc(O)cc1)NC(=O)[C@H](CC(=O)O)NC(=O)[C@H](CO)NC(=O)[C@@H](NC(=O)[C@H](Cc1ccccc1)NC(=O)[C@@H](NC(=O)CNC(=O)[C@H](CCC(=O)O)NC(=O)C(C)(C)NC(=O)[C@@H](N)Cc1c[nH]cn1)[C@@H](C)O)[C@@H](C)O)C(=O)N[C@@H](CCC(N)=O)C(=O)N[C@@H](Cc1c[nH]c2ccccc12)C(=O)N[C@@H](CC(C)C)C(=O)N[C@H](C(N)=O)C(C)C
B6: SEQ ID NO: 198 (peptide)
peptide: H[Aib]EGTFTSDYSVLLEGAALQRFIQWLV-NH2
modifications: N-terminus assumed
SMILES: CC[C@H](C)[C@H](NC(=O)[C@H](Cc1ccccc1)NC(=O)[C@H](CCCNC(=N)N)NC(=O)[C@H](CCC(N)=O)NC(=O)[C@H](CC(C)C)NC(=O)[C@H](C)NC(=O)[C@H](C)NC(=O)CNC(=O)[C@H](CCC(=O)O)NC(=O)[C@H](CC(C)C)NC(=O)[C@H](CC(C)C)NC(=O)[C@@H](NC(=O)[C@H](CO)NC(=O)[C@H](Cc1ccc(O)cc1)NC(=O)[C@H](CC(=O)O)NC(=O)[C@H](CO)NC(=O)[C@@H](NC(=O)[C@H](Cc1ccccc1)NC(=O)[C@@H](NC(=O)CNC(=O)[C@H](CCC(=O)O)NC(=O)C(C)(C)NC(=O)[C@@H](N)Cc1c[nH]cn1)[C@@H](C)O)[C@@H](C)O)C(C)C)C(=O)N[C@@H](CCC(N)=O)C(=O)N[C@@H](Cc1c[nH]c2ccccc12)C(=O)N[C@@H](CC(C)C)C(=O)N[C@H](C(N)=O)C(C)C
B7: SEQ ID NO: 192 (peptide)
peptide: H[Aib]EGTFTSDWS[Aib]LLEGAALQRFIQWLV-NH2
modifications: N-terminus assumed
SMILES: CC[C@H](C)[C@H](NC(=O)[C@H](Cc1ccccc1)NC(=O)[C@H](CCCNC(=N)N)NC(=O)[C@H](CCC(N)=O)NC(=O)[C@H](CC(C)C)NC(=O)[C@H](C)NC(=O)[C@H](C)NC(=O)CNC(=O)[C@H](CCC(=O)O)NC(=O)[C@H](CC(C)C)NC(=O)[C@H](CC(C)C)NC(=O)C(C)(C)NC(=O)[C@H](CO)NC(=O)[C@H](Cc1c[nH]c2ccccc12)NC(=O)[C@H](CC(=O)O)NC(=O)[C@H](CO)NC(=O)[C@@H](NC(=O)[C@H](Cc1ccccc1)NC(=O)[C@@H](NC(=O)CNC(=O)[C@H](CCC(=O)O)NC(=O)C(C)(C)NC(=O)[C@@H](N)Cc1c[nH]cn1)[C@@H](C)O)[C@@H](C)O)C(=O)N[C@@H](CCC(N)=O)C(=O)N[C@@H](Cc1c[nH]c2ccccc12)C(=O)N[C@@H](CC(C)C)C(=O)N[C@H](C(N)=O)C(C)C
B8: SEQ ID NO: 189 (peptide)
peptide: H[Aib]EGTFTSDWSYLLEGAALQRFIQWLV-NH2
modifications: N-terminus assumed
SMILES: CC[C@H](C)[C@H](NC(=O)[C@H](Cc1ccccc1)NC(=O)[C@H](CCCNC(=N)N)NC(=O)[C@H](CCC(N)=O)NC(=O)[C@H](CC(C)C)NC(=O)[C@H](C)NC(=O)[C@H](C)NC(=O)CNC(=O)[C@H](CCC(=O)O)NC(=O)[C@H](CC(C)C)NC(=O)[C@H](CC(C)C)NC(=O)[C@H](Cc1ccc(O)cc1)NC(=O)[C@H](CO)NC(=O)[C@H](Cc1c[nH]c2ccccc12)NC(=O)[C@H](CC(=O)O)NC(=O)[C@H](CO)NC(=O)[C@@H](NC(=O)[C@H](Cc1ccccc1)NC(=O)[C@@H](NC(=O)CNC(=O)[C@H](CCC(=O)O)NC(=O)C(C)(C)NC(=O)[C@@H](N)Cc1c[nH]cn1)[C@@H](C)O)[C@@H](C)O)C(=O)N[C@@H](CCC(N)=O)C(=O)N[C@@H](Cc1c[nH]c2ccccc12)C(=O)N[C@@H](CC(C)C)C(=O)N[C@H](C(N)=O)C(C)C
B9: SEQ ID NO: 191 (peptide)
peptide: H[Aib]EGTFTSDWSWLLEGAALQRFIQWLV-NH2
modifications: N-terminus assumed
SMILES: CC[C@H](C)[C@H](NC(=O)[C@H](Cc1ccccc1)NC(=O)[C@H](CCCNC(=N)N)NC(=O)[C@H](CCC(N)=O)NC(=O)[C@H](CC(C)C)NC(=O)[C@H](C)NC(=O)[C@H](C)NC(=O)CNC(=O)[C@H](CCC(=O)O)NC(=O)[C@H](CC(C)C)NC(=O)[C@H](CC(C)C)NC(=O)[C@H](Cc1c[nH]c2ccccc12)NC(=O)[C@H](CO)NC(=O)[C@H](Cc1c[nH]c2ccccc12)NC(=O)[C@H](CC(=O)O)NC(=O)[C@H](CO)NC(=O)[C@@H](NC(=O)[C@H](Cc1ccccc1)NC(=O)[C@@H](NC(=O)CNC(=O)[C@H](CCC(=O)O)NC(=O)C(C)(C)NC(=O)[C@@H](N)Cc1c[nH]cn1)[C@@H](C)O)[C@@H](C)O)C(=O)N[C@@H](CCC(N)=O)C(=O)N[C@@H](Cc1c[nH]c2ccccc12)C(=O)N[C@@H](CC(C)C)C(=O)N[C@H](C(N)=O)C(C)C

Molecular target: human GLP-1 receptor (hGLP1R) (human, UniProt P43220 24-463)
Experiment: cell-based or functional assay

pEC50 hGLPR1	Binder
10.9 -log M	H[Aib]EGTFTSDYSYLK([AEEA-AEEA-γGlu-C20 diacid])EEA[Aib]LQRFLEHLV-NH2 [SEQ ID NO: 196]
10.2 -log M	B1
10.7 -log M	H[Aib]EGTFTSDVSTLK([AEEA-AEEA-γGlu-C20 diacid])ETAASQRFLEHLV-NH2 [SEQ ID NO: 20]
10.6 -log M	B2
10.8 -log M	B3
10.6 -log M	B4
10.6 -log M	B5
10.6 -log M	B6
9.9 -log M	B7
10.8 -log M	B8
10.1 -log M	B9

Molecular target: human secretin receptor (hSCTR) (human, UniProt P47872 23-440)
Sequence (P47872 23-440): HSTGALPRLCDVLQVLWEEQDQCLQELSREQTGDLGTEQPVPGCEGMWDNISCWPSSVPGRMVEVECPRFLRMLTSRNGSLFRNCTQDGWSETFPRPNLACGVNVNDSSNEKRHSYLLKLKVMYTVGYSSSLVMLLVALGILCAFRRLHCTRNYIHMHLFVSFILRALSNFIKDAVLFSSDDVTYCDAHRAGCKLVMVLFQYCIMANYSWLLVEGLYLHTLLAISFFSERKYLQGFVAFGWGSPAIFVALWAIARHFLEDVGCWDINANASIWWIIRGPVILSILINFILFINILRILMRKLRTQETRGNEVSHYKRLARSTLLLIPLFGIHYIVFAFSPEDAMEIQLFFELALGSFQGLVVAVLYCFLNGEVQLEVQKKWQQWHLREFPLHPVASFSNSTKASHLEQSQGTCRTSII
Experiment: cell-based or functional assay

pEC50 hSCTR	Binder
7.7 -log M	H[Aib]EGTFTSDYSYLK([AEEA-AEEA-γGlu-C20 diacid])EEA[Aib]LQRFLEHLV-NH2 [SEQ ID NO: 196]
7 -log M	B1
6.4 -log M	H[Aib]EGTFTSDVSTLK([AEEA-AEEA-γGlu-C20 diacid])ETAASQRFLEHLV-NH2 [SEQ ID NO: 20]
8 -log M	B2
8.1 -log M	B3
7.9 -log M	B4
8.3 -log M	B5
8.3 -log M	B6
7.3 -log M	B7
6.8 -log M	B8
7.2 -log M	B9
